Measurements: patent US20260265360A1, “USE OF ANTI-FAM19A5 ANTAGONISTS FOR TREATING HEARING DISORDERS” (NEURACLE SCIENCE CO., LTD., priority 2023, published 2026)

Legend:
[1] = system: human FAM19A5 protein epitope fragments F1-F6; assay: Epitope mapping: binding to BSA-conjugated FAM19A5 epitope fragments F1-F6 (Western blot / ELISA); conditions: ELISA
Protocol: Overlapping peptide fragments (F1-F6 epitope fragments; SEQ ID NOs: 178-183) of the human FAM19A5 protein were synthesized and conjugated to BSA (SEQ ID NOs: 322-327). Binding of the different anti-FAM19A5 antibodies to the BSA-conjugated peptide fragments F1-F6 was determined by Western blot analysis or ELISA assay. For the Western blot analysis, BSA-conjugated FAM19A5 fragments F1-F6 were separated by SDS polyacrylamide gel electrophoresis and transferred to a nitrocellulose membrane by the standard procedure. The membrane was incubated with the anti-FAM19A5 antibody (e.g., 1-65, […], 1-65-scFv-rabbit Fc-SSS), and the antigen-antibody complexes were detected with the appropriate secondary antibody conjugated with horse-radish peroxidase (anti-rabbit IgG (Fc specific)-HRP, 1:4000 dilution). For the ELISA assay, the following protocol was used. FAM19A5 fragment F1-F6 (diluted to 1 μg/mL in 50 mM carbonate buffer (Biosesang) or to 20 μg/mL for high concentration analysis) were used to coat the wells of 96-well immuno plates (Thermo Scientific) (100 μL/well) overnight at 4° C. and then subsequently washed twice in 1×PBS. The plates were then blocked with the blocking buffer (100 μL/well) for 1 hour at room temperature. During the 1-hour incubation, the relavant anti-FAM19A5 antibodies were diluted to 1 μg/mL (or 20 μg/mL for high concentration analysis) in the diluent buffer. Once the plates were washed (2× using 1×PBS), the diluted anti-FAM19A5 antibodies were added to the appropriate wells, and the plates were incubated at room temperature for 1 hour. The plates were subsequently washed for a total of five times using the washing buffer. Next, the ODP substrate (prepared by dissolving one ODP tablet (O-phenylenediamine Dihydrochloride, Thermo) into 9 mL of sterilized deionized water and 1 mL of 10× stable Peroxide Stable buffer (Theromo)) was added to each of the wells, and the color change reaction was allowed to occur for 10 minutes. This reaction was stopped by adding 100 μL of 2N H2SO4 (Daejung) to the wells. The absorption value of each of the wells was detected at 492 nm using a 96-well microplate reader (Molecular Device).

FAM19A5 mutants M1 to M8 [2] = target: T1, FAM19A5 mutants M1 to M8 (Homo sapiens, UniProt Q7Z5A7); assay: Epitope mapping ELISA with FAM19A5 mutants M1-M8; assay type: binding
T1 construct: made in house; host or cells: phage display with helper phage
Protocol: (§1) To further characterize the binding epitopes of the anti-FAM19A5 antibodies disclosed in the present disclosure, the amino acid sequences for the different FAM19 family members (i.e., FAM19A1-5) were aligned. […] The amino acid sequences of these regions were replaced with the consensus sequence of the corresponding regions for the FAM19A1-4 proteins. See Table 13 (the mutated amino acid residues are bolded and underlined).
(§2) The mutant FAM19A5-expressing phages were prepared as follows. To prepare the media for phage culture, 55.6 ml of 2M Glucose (D-(+)-Glucose, Sigma), 5 mL of 1M MgCl2 (Magnesium chloride, Junsei) 1 mL of 34 mg/mL chloramphenicol (Sigma) were added to 2×YT media. Colonies obtained through mono-phage ELISA were selected and placed in 5 mL of prepared media (2×YT-GMC) to be cultured for 16 hours at 37° C. with shaking incubator (VS-8480, Vision). 100 μL of each culture was transferred to 10 mL 2×YT-GMC individually which were cultured at 37° C. in the incubator until detection value at O.D. 600 nm reached 0.5. Once detection value has reached 0.5 at O.D. 600 nm, 5 mL of each culture were obtained as samples to be infected. Following sample preparation, 50 μL of […] was added to individual samples then incubated at 37° C. without shaking for 30 minutes and with shaking for additional 30 minutes. Individual cultures were centrifuged for 15 minutes at 3,850 rpm using Micro centrifuge (Micro12, Hanil). The supernatants of centrifuged cultures were removed to be kept separate and replaced with 5 mL of 2×YT media containing 1 mL of IM IPTG (AG Scientific), 5 mL of 1M MgCl2.1 ml of 70 μg/μL kanamycin (Biopure) and 1 mL of Chloramphenicol. The resulting pellets were dispersed thoroughly in newly added media followed by incubation at 30° C. for 16 hours with stirring.

FAM19A5 mutants M1 to M8 [3] = target: T2, FAM19A5 mutants M1 to M8 (Homo sapiens, UniProt Q7Z5A7, A66V/A69S/K72P/R67K/R71F); assay: Epitope mapping ELISA with FAM19A5 mutants M1-M8; assay type: binding
T2 construct: made in house; host or cells: phage display with helper phage
Protocol: as §1, §2

FAM19A5 mutants M1 to M8 [4] = assay: Epitope mapping ELISA with FAM19A5 mutants M1-M8; assay type: binding
Protocol: as §1, §2

FAM19A5 antigen = FAM19A5 antigen (Homo sapiens, UniProt Q7Z5A7); assay: Cross-competition two-site sandwich ELISA; assay type: binding; conditions: antibodies 1-65, P2-A03, P2-F11, 13B4, 2-13, 3-2; cross-competition = S/N ratio lower than 2
Protocol: The term “S/N” refers to the signal to noise ratio, which is measured as follows: [O.D. of 10 ng/ml antigen]/[O.D. of 0 ng/ml antigen].
Next, a two-site sandwich ELISA was used as described below to assess whether the different anti-FAM19A5 antibodies with similar binding epitopes cross-compete with each other.
First, the indicated anti-FAM19A5 antibodies were diluted in 1×PBS to a concentration of 10 μg/mL. The diluted anti-FAM19A5 antibodies (10 μg/mL in 1×PBS) (“capture antibody”) were used to coat the 96-well plates (100 μL/well) at 37° C. for approximately 1 hour. After the incubation, the plates were washed with the washing buffer (0.01% Tween-20/PBS; also called 0.01% PBST) for a total of five washes, blocked with the blocking solution (5% BSA/PBS; also called 5% PBSA) (250 μL/well) for one hour at 37° C., and then washed again. Next, 100 μg/mL of the FAM19A5 antigen (diluted in PBS containing 5% BSA, 0.01% Tween-20; also called 5% PBSAT; “diluent buffer) was added to each of the wells, and the 96-well plates were incubated for 2 hours at 37° C. After the incubations, the plates were washed using 0.01% PBST for a total of five washes. After the final wash, the indicated biotinylated anti-FAM19A5 antibodies (“detection antibody”) (diluted to lug/mL in 5% PBSAT) were added to the relevant wells (100 μL volume) and the plates were incubated for an additional 1 hour at 37° C. Afterwards, the plates were washed again with 0.01% PBST (five total washes). Next, 100 μL of the diluted (1/2000 in 5% PBSAT) Streptavidin-HRP (1 mg/mL, Sigma, USA) was added to the wells, and the plates were incubated for 30 minutes at room temperature. The plates were then washed and treated with 100 μL of the TMB substrate ([…], Thermo Fisher Scientific). After an additional 30-minute incubation at room temperature, the color change reaction was induced by the addition of the TMB substrate. This reaction was stopped using 50 μL of sulfuric acid (2N H2SO4), and the extent of color change was detected via absorption at 450 nm with reference wavelength at 620 nm using a 96 well microplate reader (Molecular Device).

T1 sequence (Q7Z5A7 with tags, fused parts or gaps isoform Q7Z5A7-2, change not shown): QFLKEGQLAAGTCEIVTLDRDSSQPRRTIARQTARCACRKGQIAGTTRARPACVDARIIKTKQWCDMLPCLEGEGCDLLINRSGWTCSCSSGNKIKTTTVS
FAM19A5 antigen, sequence (Q7Z5A7 44-132): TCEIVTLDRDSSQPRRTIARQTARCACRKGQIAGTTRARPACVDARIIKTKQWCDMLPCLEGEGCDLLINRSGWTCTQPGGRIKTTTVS
T2 sequence (Q7Z5A7 26-125 isoform Q7Z5A7-2 A59V/R60K/A62S/R64F/K65P): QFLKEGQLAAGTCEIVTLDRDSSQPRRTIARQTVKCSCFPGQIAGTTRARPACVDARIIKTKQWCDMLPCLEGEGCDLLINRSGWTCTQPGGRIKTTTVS

B1: 2-13: anti-FAM19A5 antibody; VH SEQ ID NO: 35, VL SEQ ID NO: 39 (antibody, V domains shown)
VH: AVTLDESGGGLQTPGGALSLVCKASGFTFSSHGMFWVRQTPGKGLEYVAEITNDGSGTNYGSAVKGRATISRDNGQSTVRLQLNNLRAEDTGTYFCARSTYECPGGFSCWGDTGQIDAWGHGTEVIVSS
VL: ALTQPSSVSANPGETVKITCSGGSYSYGWFQQKSPGSALVTVIYWDDERPSDIPSRFSGALSGSTNTLTITGVQADDEAVYFCGTEDISGTAGVFGAGTTLTVL
modifications: 2-13 VH; 2-13 VL
binding to any of the epitope fragments F1-F6 [1]: did not appear to bind
binding to FAM19A5 mutant M8 (FAM19A5 mutants M1 to M8 [2]): failed to bind
binding to FAM19A5 mutant M4 (FAM19A5 mutants M1 to M8 [3]): failed to bind
binding to FAM19A5 mutants M1-M3 and M5-M7 (FAM19A5 mutants M1 to M8 [4]): moderate to high binding
cross-competition with the other anti-FAM19A5 antibodies (FAM19A5 antigen): did not cross-compete
